Read-outs that look alike come from different tables or passages of the source.

The target in test [1] is T1, CEACAM6 on the surface of the tumor cells (HPAFII cells) (UniProt P40199 35-320).
T1 construct: whole, on cells
T1 sequence (looked up): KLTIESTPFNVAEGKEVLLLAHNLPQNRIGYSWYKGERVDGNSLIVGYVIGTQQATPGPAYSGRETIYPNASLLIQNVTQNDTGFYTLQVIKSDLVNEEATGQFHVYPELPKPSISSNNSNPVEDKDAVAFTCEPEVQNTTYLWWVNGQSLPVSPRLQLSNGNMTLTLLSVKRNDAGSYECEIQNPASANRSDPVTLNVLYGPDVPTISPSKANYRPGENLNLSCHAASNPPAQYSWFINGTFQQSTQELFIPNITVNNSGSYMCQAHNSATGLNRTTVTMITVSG
The test can be described thus: flow cytometry on HPAFII cells (Mean-FITC); the cells carry CEACAM5 and CEACAM6, signal not divided between the two. The protocol:
(§1) The antibody to be tested was taken as the initial concentration of 200 nM and diluted 5-fold with 6 gradients. The HPAFII cells (From USTC […] FOR ADVANCED STUDIES) in the incubator were taken out, and the cell suspension was transferred to a 15 mL centrifuge tube, centrifuged, and counted by resuspension in PBS. A blank control group (Blank), a negative control group (NC), an experimental group, a positive control group and the irrelevant antibody group were kept. […] The cell suspension was spread in a 96-well plate according to about 3×10⁵ cells/well. Centrifugation (1000 rpm, 5 min) was performed, followed by washing with PBS, re-centrifugation, and repeated twice to remove media residues. The supernatant was discarded, 100 μL of primary antibody solution and irrelevant antibody solution were added to the experimental group and irrelevant antibody group, respectively, and the cells were resuspended and incubated at room temperature for 1 h. The blank group, and the negative control group were incubated with an equal amount of PBS.
(§2) After 1 h, PBS was added to wash twice. After the supernatant was discarded, 100 μL of fluorescent secondary antibody dilution (Mouse-derived secondary antibody from Abcam ab6785) was added to each sample group, except for the blank group which was added with 100 μL of PBS. After incubation at room temperature and protected from light for 0.5 h, centrifugation was performed and PBS added to wash the samples twice. After the supernatant was discarded, 120 μL of PBS was added to resuspend and sequentially flow cytometry was performed to detect the mean fluorescence intensity. The concentration of the antibody was logarithmically taken as the horizontal coordinate, and the Sigmoidaldose-response (VariableSlope) method (GraphPadPrism Software, GraphPadSoftware, San Diego, California) was chosen to perform a nonlinear regression to obtain the binding activity curves of the antibody on HPAFII cells.

A further test concerns the target T2, mouse CEACAM5 (mouse, UniProt Q3UKK2 35-947, limits assumed).
T2 sequence (looked up): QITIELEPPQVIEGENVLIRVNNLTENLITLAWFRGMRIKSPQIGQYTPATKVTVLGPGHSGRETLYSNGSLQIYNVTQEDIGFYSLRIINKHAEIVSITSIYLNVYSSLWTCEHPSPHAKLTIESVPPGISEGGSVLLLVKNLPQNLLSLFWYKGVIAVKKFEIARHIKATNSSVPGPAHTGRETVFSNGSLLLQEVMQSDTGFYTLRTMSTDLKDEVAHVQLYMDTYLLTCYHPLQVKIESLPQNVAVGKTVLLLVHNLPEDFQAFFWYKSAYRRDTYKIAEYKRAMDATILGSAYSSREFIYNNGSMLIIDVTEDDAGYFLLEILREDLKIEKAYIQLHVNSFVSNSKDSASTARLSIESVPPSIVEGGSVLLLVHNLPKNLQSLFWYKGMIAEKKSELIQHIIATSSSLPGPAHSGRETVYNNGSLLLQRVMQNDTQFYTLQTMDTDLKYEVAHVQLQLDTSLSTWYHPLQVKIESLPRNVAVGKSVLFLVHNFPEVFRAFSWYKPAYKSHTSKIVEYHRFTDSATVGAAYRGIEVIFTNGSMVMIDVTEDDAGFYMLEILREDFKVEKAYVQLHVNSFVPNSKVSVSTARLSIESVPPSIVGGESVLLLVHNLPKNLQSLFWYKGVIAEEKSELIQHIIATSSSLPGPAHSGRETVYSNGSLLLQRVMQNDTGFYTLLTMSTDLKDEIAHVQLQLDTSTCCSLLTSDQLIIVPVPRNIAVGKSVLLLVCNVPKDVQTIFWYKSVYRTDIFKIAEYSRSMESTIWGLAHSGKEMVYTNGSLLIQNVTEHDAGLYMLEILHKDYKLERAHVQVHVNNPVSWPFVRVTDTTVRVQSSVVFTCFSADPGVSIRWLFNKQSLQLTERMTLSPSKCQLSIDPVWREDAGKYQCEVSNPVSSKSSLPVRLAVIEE
The test can be described thus: ELISA on coated protein, OD450. The gist of the method: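 Plates coated overnight at 4 °C with mouse CEACAM5 protein, blocked with 2% BSA in PBS, then incubated with test antibody 1 h at 37 °C. Binding detected with HRP-conjugated goat anti-mouse IgG-Fc and TMB, absorbance read at 450 nm.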

Test [2] concerns the target T3, human CEACAM6-his (ACRO CE6-H5223) (human, UniProt P40199 35-320).
T3 construct: Bought protein; not shown: His tag
T3 sequence (looked up): T1 sequence (looked up)
The test can be described thus: ELISA on coated human CEACAM6, OD450. How it is done: (§3) The binding activity of the antibodies to human CEACAM5, human CEACAM6, and human CEACAM6 (AB) proteins was detected by ELISA. The plate coated with proteins was incubated at 4° C. overnight, and the 96-well ELISA plate blocked with 2% PBS-BSA was added with the antibody to be detected and incubated at 37° C. for 1 h. After washing 3 times with PBS containing 0.05% Tween, the absorbance value of each well was read at wavelength 450 nm with the gradient-diluted mouse-derived candidate antibody as the primary antibody and anti-mouse-IgG-FC-HRP as the secondary antibody, and the absorbance value of each well was read at wavelength 450 nm after the TMB color development.

Test [3] addresses T4, human CEACAM5-his (ACRO CE5-H5226) (human, UniProt P06731 35-685).
T4 construct: Bought protein; not shown: His tag
T4 sequence (looked up): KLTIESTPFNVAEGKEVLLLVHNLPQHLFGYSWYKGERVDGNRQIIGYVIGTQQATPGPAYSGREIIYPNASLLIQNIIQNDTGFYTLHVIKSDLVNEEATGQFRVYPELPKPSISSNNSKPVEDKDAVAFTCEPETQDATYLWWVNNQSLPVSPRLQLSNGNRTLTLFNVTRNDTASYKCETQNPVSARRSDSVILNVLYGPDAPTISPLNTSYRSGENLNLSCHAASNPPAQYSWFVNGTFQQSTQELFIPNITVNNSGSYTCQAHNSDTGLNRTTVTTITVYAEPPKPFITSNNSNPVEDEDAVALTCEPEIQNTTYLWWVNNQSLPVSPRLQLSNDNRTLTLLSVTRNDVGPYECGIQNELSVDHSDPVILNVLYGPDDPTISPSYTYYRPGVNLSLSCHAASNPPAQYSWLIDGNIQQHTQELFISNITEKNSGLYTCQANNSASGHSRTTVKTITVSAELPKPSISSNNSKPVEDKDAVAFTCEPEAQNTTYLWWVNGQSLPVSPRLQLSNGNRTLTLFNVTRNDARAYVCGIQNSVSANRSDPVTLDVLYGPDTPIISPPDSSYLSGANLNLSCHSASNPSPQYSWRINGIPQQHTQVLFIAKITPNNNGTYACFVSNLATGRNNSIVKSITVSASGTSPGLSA
The test can be described thus: ELISA on coated human CEACAM5, OD450. How it is done:
as §3

Test [4] has as its target T4, human CEACAM5-his (ACRO CE5-H5226). The test can be described thus: ELISA on coated human CEACAM5, OD450. The method, boiled down: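 Plates coated overnight at 4 °C with antigen and blocked with 2% BSA in PBS received gradient-diluted mouse candidate antibodies for 1 h at 37 °C. Binding was detected with anti-mouse IgG Fc-HRP and TMB, read as OD450.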
This is another data set of the same source.

Test [5] has as its target T5, CEACAM5 on the surface of the tumor cells (HPAFII cells) (UniProt P06731 35-685).
T5 construct: whole, on cells
T5 sequence (looked up): T4 sequence (looked up)
The test can be described thus: flow cytometry on HPAFII cells (Mean-FITC); the cells carry CEACAM5 and CEACAM6, signal not divided between the two. How it is done:
as §1, §2

For test [6], the target named is T5, CEACAM5 on the surface of the tumor …. Described as above. The protocol: as §1
After 1 h, PBS was added to wash twice. […] After the supernatant was discarded, 120 μL of PBS was added to resuspend and sequentially flow cytometry was performed to detect the mean fluorescence intensity. […]
The source holds these as a separate data set.

Test [7] shares this target. The description is as above. The protocol:
as §1, §2
The source holds these as a separate data set.

The target is the same in test [8]. The description is as above. The protocol:
as §1, §2
The source holds these as a separate data set.

The target in test [9] is T4, human CEACAM5-his (ACRO CE5-H5226). The test can be described thus: SPR (Biacore), antibody captured on CM5 chip, antigen as analyte, 1:1 model. How it is done: The CM5 sensor chip was activated at a flow rate of 10 μL/min for 420 seconds. The channel was then injected with 30 μg/mL of anti-rat Fc IgG in 10 mM NaAc (pH 4.5) at a flow rate of 10 μL/min. The chip was inactivated with 1 M ethanolamine-hydrochloric acid (GE) for 420 seconds at a flow rate of 10 μL/min.
Candidate antibodies in running buffer 1×HBS-EP+ (10 mM HEPES, 150 mM NaCl, 3 mM EDTA, 0.05% Tween 20, pH 7.4) were captured onto Fc2 with anti-rat Fc IgG at a flow rate of 10 μL/min. The 10 nM human CEACAM5-his protein or CEACAM-6-his or CEACAM6 (AB)-his protein and running buffer were sequentially injected into Fc1-Fc2 at a flow rate of […], bound for 180 seconds, and then dissociated for 3600 seconds. 10 mM glycine (pH 1.5) was injected as regeneration buffer after each dissociation.
Result plots for the reference channel Fc1 and the buffer channel were subtracted from the test result plots. The experimental data fit the 1:1 binding model. The molecular weight of 110 KDa was used to calculate the molar concentration of CEACAM5 protein, 55 KDa for human CEACAM6-his, and 55 KDa for human CEACAM6 (AB)-his.

B1: Antibody 1 (antibody, V domains shown)
VH: QVQLKQSGAELVRPGASVKLSCKTSGYIFTSYWIHWVKQRSGQGLEWIARIYPGTGSTYYNEKFKGKATLTADKSSSTAYMQLSSLKSEDSAVYFCARSGFPLTTVPLDYWGQGTTLTVSS
VL: DVQITQSPSYLAASPGETITINCRASKSISKYLAWYQEKPGKTNKLLIYSGSTLQSGIPSRFSGSGSGTDFTLTISSLEPEDFAMYYCQQHNEYPFTFGSGTKLEIK
notes: Mouse-derived hybridoma antibody; also called mouse-derived antibody 1
On to B1, for which the binding result in test [1] and in test [2] was “binds” in each case. The same molecule yielded an OD with mouse CEACAM5 of 0.16 OD. The 50% effective concentration (EC50 (read off the curve)) in test [3] is around 0.04 µg/mL.

B2: Antibody 14 (antibody, V domains shown)
VH: EVQLVETGGGLVQPKGSLKLSCAASGFSFNTNAMNWVRQAPGKGLEWVARIRSKSNNYATYYADSVKDRFTISRDDSQSMLYLQMNNLKTEDTAMYYCVSFLSLMDYWGQGTSVTVSS
VL: QIVLTQSPAIMSASPGEKVTMTCSASSSISYMHWYQQKPGTSPKRWIYDTSKLASGVPARFSGSGSGTSYSLTISSMEAEDAATYYCHQRSSYPWTFGGGTKLEIK
notes: Mouse-derived hybridoma antibody; also called mouse-derived antibody 14
Consider B2, for which the binding result in test [2] and in test [4] was “binds” each time.

B3: NEO-201 antibody (msIgG2a subtype) (antibody, V domains shown)
VH: QVQLVQSGAEVKKPGASVKVSCKASGYTFTDYAMHWVRQAPGQRLEWMGLISTYSGDTKYNQNFQGRVTMTVDKSASTAYMELSSLRSEDTAVYYCARGDYSGSRYWFAYWGQGTLVTVSS
VL: DIQMTQSPSSLSASVGDRVTITCQASENIYGALNWYQRKPGKSPKLLIYGASNLATGMPSRFSGSGSGTDYTFTISSLQPEDIATYYCQQVLSSPYTFGGGTKLEIKR
With B3, the “EC50 (read off the curve)” value in [5] is around 3 nM; in test [6] it was around 0.6 µg/mL; in [7], around 3 nM; in [8] it was around 2 nM; in test [3], around 0.004 µg/mL; in [4], around 4 ng/mL. In addition, the Kd in test [9] came out at 5.05 nM.

Source of the values: patent US20250250335A1 (SHENGHE CHINA BIOPHARMACEUTICAL, published 2025).
